Experimental data as given in patent US20240262893A1.

Key:
[1] = biological target: SARS-CoV-2 B.1.351 ('SA', beta) variant spike protein on pseudotyped virus or live virus (SARS-CoV-2 (B.1.351)), P0DTC2; experiment: cell-based or functional assay
[2] = biological target: SARS-CoV-2 B.1.1.7 ('UK', alpha) variant spike protein on pseudotyped virus or live virus (SARS-CoV-2 (B.1.1.7)); experiment: cell-based or functional assay

B1: R2D9 CDR3-knob (peptide)
peptide: ITHKTCPNGYNWFDRCCSWDGTCGDGCCSNRAWPSGNGRADSSIGETYGYEF
modifications: not checked
[1]
  pseudovirus neutralization, ng/mL (quantity not given): 22.6 ng/mL

B2: purified R2G3 CDR3-knob (after enterokinase cleavage from trxA) (peptide)
peptide: EGDKTCPDGYEHTCGCIGGCGCKRSACIGALCCQASLGGWLSDGETYTYEF
modifications: not checked
[2]
  live SARS CoV-2 neutralization, ng/mL (quantity not given): 2.48 ng/mL
[1]
  live SARS CoV-2 neutralization, ng/mL (quantity not given): 374 ng/mL
  pseudovirus neutralization, ng/mL (quantity not given): 66.2 ng/mL
